One substance from PMC4187121, “Flexible Enantioselectivity of Tryptophanase Attributable to Benzene Ring in Heterocyclic Moiety of D-Tryptophan” (Life : Open Access Journal, 2012) can be followed below.

For data set [1], the system named is T1, N[C@@H](Cc1c[nH]c2ccccc12)C(=O)O.
T1 construct: purchased Sigma-Aldrich Co. (St. Louis, MO, USA)
The data set is described as follows: L-tryptophan degradation by tryptophanase, kinetic and inhibition analysis (indole formation, Ehrlich reagent). To be noted: other: L-tryptophan degradation, pH 8.3. The data set is classed as biochemical, E. coli. On the procedure:
When tryptophanase degraded L-tryptophan, all reaction mixtures included 0.2 mM of pyridoxal 5′-phosphate and 0.23 μM of tryptophanase in 100 mM potassium phosphate buffer of pH 8.3. DAP concentrations were prepared to the required concentrations of 0, 0.6, 1.2, 1.9 or 3.1 M. L-tryptophan. The reaction mixture was prepared to a concentration of 98, 108, 128, 137, 147, 167, 196, 225, 245, 294, 343, 392, 490, 680 or 980μM for kinetic analyses. Reactions were performed at 37 °C for 30 min in a Dry Thermo Unit DTU-1B (Taitec, Tokyo, Japan). Although D-tryptophan in addition to L-tryptophan was also degraded into indole in the presence of DAP, an indole production amount from D-tryptophan was neglected at this reaction temperature and time because the catalytic efficiency for D-tryptophan was 0.3% of that for L-tryptophan. On the other hand, the reaction condition of D-tryptophan degradation differed in several ways from that of L-tryptophan degradation. Each concentration of pyridoxal 5′-phosphate and tryptophanase was 1.2 mM and 0.92μM, and additionally reaction temperature and time was 55 °C and 2 h, respectively. All the other reaction conditions were the same as in the L-tryptophan degradation.
The total volume of the reaction mixture was 2 mL per tube. The reaction was stopped by adding 2 mL of n-butanol, which was vigorously mixed and then immediately centrifuged at approximately 1,000 G for 10 min. After centrifugation, the reaction mixture was separated into two layers of butanol and aqueous solutions in which indole was equally distributed. The supernatant butanol layer was extracted to be mixed with an equal volume of Ehrlich reagent, then colored red at 60 °C for 30 min in Dry Thermo Unit. […] Tryptophanase activity was assayed in triplicate at the same substrate concentration and then averaged. Initial velocity was computed based on the averaged value.
(§1) Initial velocities were defined by indole that formed within 1 minute after 1 mg of tryptophanase was added. Then the reciprocal of (initial velocity/[E] (enzyme concentration)) (ordinate) versus the reciprocal of substrate concentration (abscissa) was drawn for each concentration of L- or D-tryptophan. These double-reciprocal plots were drawn based on the least squares method to calculate kinetic parameters. Kcatwas determined from the reciprocal of the intercepts of these double-reciprocal plots, and the Michaelis constant Km from substrate concentration at 1/v = 0 in the absence of inhibitor. In noncompetitive inhibition, two inhibition constants of Ki (=[E][I]/[EI], E: enzyme; I: inhibitor; EI: enzyme-inhibitor complex) and Ki' (=[ES][I]/[ESI], ES: enzyme-substrate complex; ESI: enzyme-substrate-inhibitor complex) were determined from the slopes and from the intercepts, respectively. In the mixed type inhibition, Ki and Ki' were determined from x and y coordinates of the fixed point in the second quadrant.

The test system of data set [2] is T2, N[C@H](Cc1c[nH]c2ccccc12)C(=O)O.
T2 construct: purchased Sigma-Aldrich Co. (St. Louis, MO, USA)
The data set is described as follows: D-tryptophan degradation by tryptophanase in the presence of 3.1 M DAP, kinetic and inhibition analysis. The format is biochemical, E. coli. The conditions noted are these: other: 3.1 M DAP, 55 °C, pH 8.3. Here is the method:
When tryptophanase degraded L-tryptophan, all reaction mixtures included 0.2 mM of pyridoxal 5′-phosphate and 0.23 μM of tryptophanase in 100 mM potassium phosphate buffer of pH 8.3. DAP concentrations were prepared to the required concentrations of 0, 0.6, 1.2, 1.9 or 3.1 M. L-tryptophan. The reaction mixture was prepared to a concentration of 98, 108, 128, 137, 147, 167, 196, 225, 245, 294, 343, 392, 490, 680 or 980μM for kinetic analyses. Reactions were performed at 37 °C for 30 min in a Dry Thermo Unit DTU-1B (Taitec, Tokyo, Japan). […]
as §1, with “Then the reciprocal of (initial velocity/[E] (enzyme concentration)) (ordinate) versus the reciprocal of substrate concentration (abscissa) was drawn for each concentration of L- or D-tryptophan. These double-reciprocal plots were drawn based on the least squares method to calculate kinetic parameters.” left out

What is called Km is the substrate concentration at which the rate is half of its maximum. By kcat is commonly meant the number of substrate molecules converted per active site and unit of time at saturation. The kcat/Km is the second-order rate constant that governs catalysis at low substrate concentration.

As for tryptophanase (Escherichia coli K-12), the Km in data set [1] (DAP 0 M) was found to be 300 µM; in data set [1] (DAP 0.6 M) it was 200 µM; in data set [1] (DAP 1.2 M), 200 µM; in data set [1] (DAP 1.9 M) it was 200 µM; in data set [1] (DAP 3.1 M), 200 µM; in data set [2] it was 600 µM. In addition, the kcat in data set [1] (DAP 0 M) was found to be 0.4 s⁻¹; in data set [1] (DAP 0.6 M) it was 0.18 s⁻¹; in data set [1] (DAP 1.2 M), 0.15 s⁻¹; in data set [1] (DAP 1.9 M), 0.11 s⁻¹; in data set [1] (DAP 3.1 M), 0.07 s⁻¹; in data set [2], 0.07 s⁻¹. Further, the kcat/Km in data set [1] (DAP 0 M) is 1300 M⁻¹ s⁻¹; in data set [1] (DAP 0.6 M), 900 M⁻¹ s⁻¹; in data set [1] (DAP 1.2 M), 800 M⁻¹ s⁻¹; in data set [1] (DAP 1.9 M), 600 M⁻¹ s⁻¹; in data set [1] (DAP 3.1 M) it was 400 M⁻¹ s⁻¹.
